{
  "source": "patent US20180148484A1",
  "about": "(Pieris, published 2018)",
  "binders": {"B1": {"name": "lipocalin mutein of SEQ ID NO: 18 (designed binder, not shown: small tags and cut ends)", "chain": "QDSTSDLIPAPPLSKVPLQQNFQDNQFHGKWYVVGQAGNIRLREDKDPHKMMATIYELKEDKSYDVTGVTFDDKKCTYAISTFVPGSQPGEFTLGKIKSFPGHTSSLVRVVSTNYNQHAMVFFKFVFQNREEFYITLYGRTKELTSELKENFIRFSKSLGLPENHIVFPVPIDQCIDG", "notes": "expressed in E. coli with a C-terminal Strep-tag II; also called hNGAL mutein"}, "B2": {"name": "lipocalin mutein of SEQ ID NO: 13 (designed binder, not shown: small tags and cut ends)", "chain": "B1 chain with H49I, G68M, T70K, T77M, A79D, S81W", "notes": "as for B1"}, "B3": {"name": "lipocalin mutein of SEQ ID NO: 17 (designed binder, not shown: small tags and cut ends)", "chain": "B1 chain with R41K, H49V, T77R, A79D, L94F", "notes": "as for B1"}, "B4": {"name": "lipocalin mutein of SEQ ID NO: 15 (designed binder, not shown: small tags and cut ends)", "chain": "B1 chain with R41K, H49N, G68A, T70A, A79D, S81W", "notes": "as for B1"}, "B5": {"name": "lipocalin mutein of SEQ ID NO: 14 (designed binder, not shown: small tags and cut ends)", "chain": "B1 chain with H49N, G68A, T70A, A79D, S81W", "notes": "as for B1"}, "B6": {"name": "lipocalin mutein of SEQ ID NO: 20 (designed binder, not shown: small tags and cut ends)", "chain": "B1 chain with H49S, G68A, T77N", "notes": "as for B1"}, "B7": {"name": "lipocalin mutein of SEQ ID NO: 19 (designed binder, not shown: small tags and cut ends)", "chain": "B1 chain with R41K, H49N, F83L, L94F", "notes": "as for B1"}, "B8": {"name": "lipocalin mutein of SEQ ID NO: 12 (designed binder, not shown: small tags and cut ends)", "chain": "B1 chain with R41K, H49N, D65N", "notes": "as for B1"}, "B9": {"name": "negative control, wild-type like lipocalin mutein SEQ ID NO: 4 (other)", "chain": "QDSTSDLIPAPPLSKVPLQQNFQDNQFHGKWYVVGLAGNAILREDKDPQKMYATIYELKEDKSYNVTSVLFRKKKCDYWIRTFVPGSQPGEFTLGNIKSYPGLTSYLVRVVSTNYNQHAMVFFKKVSQNREYFKITLYGRTKELTSELKENFIRFSKSLGLPENHIVFPVPIDQCIDG", "notes": "captured by anti-hNGAL antibody in the T-cell assays"}, "B10": {"name": "lipocalin mutein of SEQ ID NO: 16 (designed binder, not shown: small tags and cut ends)", "chain": "QDSTSDLIPAPPLSKVPLQQNFQDNQFHGKWYVVGQAGNIKLREDSKMMATIYELKEDKSYDVTGVSFDDKKCTYAIMTFVPGSQPGEFTLGKIKSFPGHTSSLVRVVSTNYNQHAMVFFKFVFQNREEFYITLYGRTKELTSELKENFIRFSKSLGLPENHIVFPVPIDQCIDG", "notes": "as for B1"}},
  "key": {"[1]": {"biological_target": "T1, human CD137-Fc fusion protein (Fc-fusion of the full extracellular domain of human CD137, R&D Systems 838-4B) (human, UniProt Q07011 24-186)", "T1 construct": "extracellular domain; Bought protein; also called huCD137-Fc; KD huCD137; not shown: Fc of human IgG (captured by an anti-human IgG-Fc antibody)", "assay": "SPR (Biacore T200, 37 C), huCD137-Fc captured via anti-human IgG-Fc antibody, mutein as analyte, 1:1 model", "description": "Prior to the protein measurements three regeneration cycles were performed for conditioning purposes. Regeneration of the derivatized chip surface was achieved by applying 3M MgCl₂ for 60 s followed by 10 mM glycine, pH 1.7 for 180 s. Anti-human IgG-Fc antibody was utilized to immobilize huCD137-Fc in a subsequent step and taken from the human antibody capture kit (GE Healthcare, BR-1008-39). It was immobilized on a CM5 sensor chip using standard amine coupling chemistry and the immobilization buffer included in the kit (10 mM sodium acetate pH 5.0), resulting in a ligand density of about 13000 resonance units (RU). The reference channel was treated accordingly.\nHuCD137-Fc at a concentration of 0.5 μg/mL was captured on this surface for 180 s at a flow rate of 10 μL/min in HBS-EP+ buffer. No target protein was applied to the reference channel. Subsequently, the lipocalin muteins were applied in an appropriate dilution series in HBS-EP+ buffer at a flow rate of 30 μL/min. Regeneration of the derivatized chip surface was achieved as described above. Data were evaluated with Biacore T200 Evaluation software (V 2.0). Double referencing was used and the 1:1 Binding model was used to fit the raw data."}, "[2]": {"biological_target": "T2, human CD137 expressed on cells (human, UniProt Q07011 24-255)", "T2 construct": "whole, on cells; also called CHO-huCD137; CHO::hCD137", "T2 sequence (Q07011 24-255)": "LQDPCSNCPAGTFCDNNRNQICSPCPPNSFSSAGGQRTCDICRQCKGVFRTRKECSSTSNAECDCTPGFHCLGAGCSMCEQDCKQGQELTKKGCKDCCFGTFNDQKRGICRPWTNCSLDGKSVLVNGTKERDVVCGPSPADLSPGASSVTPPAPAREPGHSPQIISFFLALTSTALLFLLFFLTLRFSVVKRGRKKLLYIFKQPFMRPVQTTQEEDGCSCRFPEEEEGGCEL", "assay": "FACS on CHO cells stably transfected with human CD137; anti-lipocalin primary and Alexa488 secondary antibody", "description": "(§1) To perform the experiment, CD137-positive and negative Flp-In CHO cells were incubated with lipocalin muteins, and bound mutein was labeled using anti-lipocalin primary antibodies and fluorescently labeled secondary antibodies, which were detected by FACS analysis as described in the following.\n(§2) 1×10⁵ cells per well were pre-incubated for 1 h in ice-cold PBS containing 5% fetal calf serum (PBS-FCS). Subsequently, a dilution series of lipocalin muteins and negative controls typically ranging from 10 μM to 1 nM was added to the cells and incubation was continued on ice for 1 h. Cells were washed twice in ice-cold PBS using centrifugation at 300 g and then incubated with a rabbit anti-lipocalin primary antibody (Pieris, (polyclonal rabbit anti-hNGAL and rabbit anti-hTLC; Pieris) for 30 min on ice. Cells were washed twice in ice-cold PBS, re-suspended in PBS-FCS and incubated 30 min on ice with a secondary anti-rabbit antibody labelled with the fluorescent dye Alexa488 (Life Technologies). Cells were subsequently washed and analyzed using a Guava easyCyte HT Flow cytometer. Typically, a gate was set to exclude non-viable cells and 5.000 events were recorded. Numerical results are expressed as the geometric mean of the fluorescence intensity."}, "[3]": {"biological_target": "T2, human CD137 expressed on cells", "assay": "cell-based or functional assay"}, "[4]": {"biological_target": "T2, human CD137 expressed on cells", "assay": "FACS on CHO cells stably transfected with human CD137", "description": "as §1, §2"}, "[5]": {"biological_target": "T1, human CD137-Fc fusion protein …", "assay": "SPR, huCD137-Fc captured via anti-human IgG-Fc antibody", "from_the_text": "FIG. 1: provides typical measurements of on-rate and off-rate by surface plasmon resonance (SPR) for the interaction of various representative lipocalin muteins (SEQ ID NOs indicated in the graph) with human CD137 (Fc-fusion) as the target. The targets were immobilized via an anti-human IgG-Fc antibody, which was in turn immobilized on a sensor chip using standard amine coupling chemistry. The lipocalin muteins were employed as the soluble analyte which was flowed at different concentrations across the chip surface. […] The dissociation constants resulting from a fit (1:1 binding model) of the depicted data for all SEQ ID NOs are provided in Table 1.\nPrior to the protein measurements three regeneration cycles were performed for conditioning purposes. Regeneration of the derivatized chip surface was achieved by applying 3M MgCl₂ for 60 s followed by 10 mM glycine, pH 1.7 for 180 s. Anti-human IgG-Fc antibody was utilized to immobilize huCD137-Fc in a subsequent step and taken from the human antibody capture kit (GE Healthcare, BR-1008-39). […]\nHuCD137-Fc at a concentration of 0.5 μg/mL was captured on this surface for 180 s at a flow rate of 10 μL/min in HBS-EP+ buffer. […] Data were evaluated with Biacore T200 Evaluation software (V 2.0). […]"}},
  "note": "Substitutions are numbered along the chain they refer to.",
  "data": [
    {"binder": "B1", "values": [
      {"measurement": "Kd", "setting": "[1]", "value": 77, "unit": "nM"},
      {"measurement": "EC50", "setting": "[2]", "value": 13.7, "unit": "nM"}
    ]},
    {"binder": "B2", "values": [
      {"measurement": "IFN-γ production, coated mutein, anti-CD3 and anti-CD28 stimulation", "setting": "[3]", "value": "≤ 2.5 fold over negative control"},
      {"measurement": "IFN-γ production, coated mutein, anti-CD3 stimulation only", "setting": "[3]", "value": "~2.5 fold over negative control"},
      {"measurement": "IL-2 production, coated mutein, anti-CD3 and anti-CD28 stimulation", "setting": "[3]", "value": "~6 fold over negative control"},
      {"measurement": "maximum response at 6.25 µg/mL coating concentration (readout not named, probably IL-2), anti-CD3 stimulation only", "setting": "[3]", "value": "15 fold over negative control"},
      {"measurement": "proliferation rate (BrdU), coated mutein, anti-CD3 and anti-CD28 stimulation", "setting": "[3]", "value": "≤ 14 fold over negative control"},
      {"measurement": "proliferation rate (BrdU), coated mutein, anti-CD3 stimulation only", "setting": "[3]", "value": "≤ 4 fold over negative control"},
      {"measurement": "Kd", "setting": "[1]", "value": 2, "unit": "nM"},
      {"measurement": "EC50", "setting": "[2]", "value": 4.3, "unit": "nM"}
    ]},
    {"binder": "B3", "values": [
      {"measurement": "Kd", "setting": "[1]", "value": 50, "unit": "nM"},
      {"measurement": "EC50", "setting": "[2]", "value": 17.9, "unit": "nM"}
    ]},
    {"binder": "B4", "values": [
      {"measurement": "Kd", "setting": "[1]", "value": 23, "unit": "nM"},
      {"measurement": "EC50", "setting": "[2]", "value": 7.8, "unit": "nM"}
    ]},
    {"binder": "B5", "values": [
      {"measurement": "Kd", "setting": "[1]", "value": 9, "unit": "nM"},
      {"measurement": "EC50", "setting": "[2]", "value": 4.5, "unit": "nM"}
    ]},
    {"binder": "B6", "values": [
      {"measurement": "Kd", "setting": "[1]", "value": 138, "unit": "nM"},
      {"measurement": "EC50", "setting": "[2]", "value": 18, "unit": "nM"}
    ]},
    {"binder": "B7", "values": [
      {"measurement": "Kd", "setting": "[1]", "value": 98, "unit": "nM"}
    ]},
    {"binder": "B8", "values": [
      {"measurement": "Kd", "setting": "[1]", "value": 36, "unit": "nM"}
    ]},
    {"binder": "B9", "values": [
      {"measurement": "binding result", "setting": "[4]", "value": "no binding"},
      {"measurement": "binding result", "setting": "[5]", "value": "no binding"}
    ]},
    {"binder": "B10", "values": [
      {"measurement": "Kd", "setting": "[1]", "value": 30, "unit": "nM"}
    ]}
  ]
}
